This data set relates to MS2 coat protein. Nature of the data set: apparent KD of MS2 coat protein; designed switch direction (-1 OFF switch, 1 ON switch): -1; higher = weaker reporter binding. In a few lines: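 Each step of the titration lasted 0.8–1.5 h at the lowest concentration and 10–20 min at the highest. The protein, SNAP-549-labelled MS2 coat protein, went from 0.7 or 1.5 nM doubling to 3 µM over RNA switches transcribed on Illumina chips by stalled E. coli RNA polymerase. Normalised cluster fluorescence was curve-fitted, and the per-design median over clusters is given as apparent KD.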

Setting [1] is: input ligand: microRNA oligo, concentration not stated.
Setting [2] is: Eterna round: R95, input ligand: microRNA oligo, concentration not stated.
The mark [3] stands for this setting: Eterna round: R95, input ligand: FMN 200 uM.
Setting [4] is: Eterna round: R95, input ligand: none.

In the case of “UAUAUGUCAGGAUAUUAGUAGUAAAUAAAUAAAAUUAUUACUGAGAAGGGACAUGAGGAUCACCCAUGUUCCUC [JR_Ex4_Sub001] (Eterna round: R97, puzzle: Exclusion 4)”, the “apparent KD of MS2 coat protein” value was found to be 162 nM (input ligand: FMN 200 uM) and 22.9 nM (input ligand: none).
Regarding “UAUAUGUUAGGAUAUCUCGUCAUGGAGGAAACUCCAUGACGAGAGAAGGAACAUGAGGAUCACCCAUGUUUAUU [Mod of Fisker 25 - Jieux - Exclusion 4] (Eterna round: R97, puzzle: Exclusion 4)”, the “apparent KD of MS2 coat protein” value is, setting by setting: (input ligand: FMN 200 uM) 27.4 nM; (input ligand: none) 19 nM.
As for “UAUAUGUUAGGAUAUUAGUAGUAAAUGAAUAAAAUUAUUACUGAGAAGGGACAUGAGGAUCACCCAUGUACCUC [Mat - Exclusion 4 - Eli Mod - D30] (Eterna round: R97, puzzle: Exclusion 4)”, the “apparent KD of MS2 coat protein” value runs as follows: (input ligand: FMN 200 uM) 19.3 nM; (input ligand: none) 15.9 nM.
In the case of “UAUCGGGACUGAGGAUAUUCGUUCGAGCACGAAGAAGAAGGUAGUGUCAGGGACAUGAGGAUCACCCAUGUGAUCUCAGUCCCA [JL ViennaUCT Erinle mod 7] (Eterna round: R96, puzzle: Exclusion NG 1)”, the “apparent KD of MS2 coat protein” value was found to be 71.8 nM (input ligand: FMN 200 uM), 60.4 nM under setting [1] and 67 nM (input ligand: none).
Consider “UAUCGGGACUGAGGAUAUUCGUUCGAGCACGAAGAAGAAGGUAGUGUCAGGGACAUGAGGAUCACCCAUGUGAUCUCAGUCUUA [JL ViennaUCT Erinle mod 8] (Eterna round: R96, puzzle: Exclusion NG 1)”, for which the “apparent KD of MS2 coat protein” value by setting is: (input ligand: FMN 200 uM) 127 nM; under setting [1], 86.7 nM; (input ligand: none) 98.9 nM.
For “UAUGGUAAAGUCAGGAUAUACGUACAGAAUUCUAGGUAGAAGGGACAUGAGGAUCACCCAUGUAUGGUAGUGUU [Ex4 #43] (Eterna round: R97, puzzle: Brourd's mod of Exclusion 4)”, the “apparent KD of MS2 coat protein” value runs as follows: (input ligand: FMN 200 uM) 262 nM; (input ligand: none) 66.9 nM.
In the case of “UAUGGUUAAGUCAGGAUAUACGUACAGAUAUCUGAGUAGAAGGGACAUGAGGAUCACCCAUGUAUGGUAGUGUU [Ex4 #53] (Eterna round: R97, puzzle: Brourd's mod of Exclusion 4)”, the “apparent KD of MS2 coat protein” value runs as follows: (input ligand: FMN 200 uM) 187 nM; (input ligand: none) 64.8 nM.
For “UAUGGUUAAGUCAGGAUAUACGUGCAGUUUUCUGGGUAGAAGGGACAUGAGGAUCACCCAUGUAUGGUAGUGUU [Ex4 #49] (Eterna round: R97, puzzle: Brourd's mod of Exclusion 4)”, the “apparent KD of MS2 coat protein” value amounted to 188 nM (input ligand: FMN 200 uM) and 149 nM (input ligand: none).
For the sequence “UAUGGUUAAGUCAGGAUAUGCACGAAGAGGUCUAUGCAGAAGGGACAUGAGGAUCACCCAUGUAAAGUCGUGUU [Ex4 #72] (Eterna round: R97, puzzle: Brourd's mod of Exclusion 4)”, the “apparent KD of MS2 coat protein” value runs as follows: (input ligand: FMN 200 uM) 57.3 nM; (input ligand: none) 36.6 nM.
The matching figures for “UAUGGUUAAGUCAGGAUAUGCACGCAGAUUACAAAGCAGAAGGGACAUGAGGAUCACCCAUGUACACUCGUGUU [Ex4 #79] (Eterna round: R97, puzzle: Brourd's mod of Exclusion 4)”: 25.9 nM and 36.1 nM.
Consider “UAUGUUGUUGUGAGGAUAUACUUAGUUUGACCGUAGUAGAAGGCACAUGAGGAUCACCCAUGUAGAUGUUUGGU [JR_BME4_Sub005] (puzzle: Brourd's mod of Exclusion 4)”, for which the “apparent KD of MS2 coat protein” value under setting [2] was 14.9 nM.
In the case of “UAUGUUUUUGUGAGGAUAUACUUUGUUUGGUCGUAGUAGAAGGCACAUGAGGAUCACCCAUGUAGAUUUUUGGU [JR_BME4_Sub010] (puzzle: Brourd's mod of Exclusion 4)”, the “apparent KD of MS2 coat protein” value under setting [2] worked out at 22.9 nM.
Consider “UAUUAAACAAGCAGGUCCCACAUGAGGAUCACCCAUGUGCUCGUCUUAUAACGAUCUGUGGGAAAACCUACGGAUCG [Elimod 18 - Jieux - Sensor, turn-off variant 1] (Eterna round: R97, puzzle: Sensor, turn-off variant 1)”, for which the “apparent KD of MS2 coat protein” value was determined as 37.7 nM (input ligand: FMN 200 uM) and 45.1 nM (input ligand: none).
In the case of “UAUUAACAAGCAAGAUCCUACAUGAGGAUCACCCAUGUGUUCGUCUUAUAAGGUACUGUGACGAAAGUCACGGUACC [Sensor 3, v1 - 75] (puzzle: Sensor v3, turn-off variant 1)”, the “apparent KD of MS2 coat protein” value is, setting by setting: under setting [3], 76 nM; under setting [2], 321 nM; under setting [4], 108 nM.
Consider “UAUUAACAAGCAUGAUCCCACAUGAGGAUCACCCAUGUGCUCGUCUUAUAAGGUACUGUGACGAAAGUCACGGUACC [Sensor 3, v1 - 85] (puzzle: Sensor v3, turn-off variant 1)”, for which the “apparent KD of MS2 coat protein” value runs as follows: under setting [3], 132 nM; under setting [2], 139 nM; under setting [4], 144 nM.
As to “UAUUAACAAGCUUGAUCCCACAUGAGGAUCACCCAUGUGCUCGUCUUAUAAGGUACUGUGACGAAAGUCACGGUACC [Sensor 3, v1 - 86] (puzzle: Sensor v3, turn-off variant 1)”, the “apparent KD of MS2 coat protein” value was determined as 89.9 nM under setting [3], 206 nM under setting [2] and 91.2 nM under setting [4].
For the sequence “UAUUAAUGCAAGGAUAUGCUUUUAAUUUUUUUUGCAGAAGGUGCAACAUGAGGAUCACCCAUGUUUCCGGGUAU [JR_E6_Sub032] (puzzle: Exclusion 6)”, the “apparent KD of MS2 coat protein” value under setting [2] was determined as 25.7 nM.
As to “UAUUAGCAAGAAAGAUCCCACAUGAGGAUCACCCAUGUGCUCGUCUUAUAAGGUACUGUGACGAAAGUCACGGUACC [Sensor 3, v1 - 89] (puzzle: Sensor v3, turn-off variant 1)”, the “apparent KD of MS2 coat protein” value is, setting by setting: under setting [3], 25.3 nM; under setting [2], 101 nM; under setting [4], 26.4 nM.
Take “UAUUAGCAAGCAAAUGGGUACAUGAGGAUCACCCAUGUGCUCGUCUUAUAAGGUACUGUGCCGAAAGUCACGGUACC [mod--Eli2] (Eterna round: R97, puzzle: Sensor, turn-off variant 1)”: the “apparent KD of MS2 coat protein” value is, setting by setting: (input ligand: FMN 200 uM) 23 nM; (input ligand: none) 23.4 nM.
In the case of “UAUUAGCAAGCAACUGGGUACAUGAGGAUCACCCAUGUGCUCGUCUUAUAAGGUACUGUGACGAAAGUCACGGUACC [mod--Eli] (Eterna round: R97, puzzle: Sensor, turn-off variant 1)”, the “apparent KD of MS2 coat protein” value by setting is: (input ligand: FMN 200 uM) 17.4 nM; (input ligand: none) 16.6 nM.
With “UAUUAGCAAGCGAGAUCCCACAUGAGGAUCACCCAUGUAAUAAAGCAUCCAGAAUUACUGGGUGCAGCUCGUCUUAU [Winner reversed engineered 11] (Eterna round: R97, puzzle: Sensor, turn-off variant 1)”, the “apparent KD of MS2 coat protein” value came out at 32.7 nM (input ligand: FMN 200 uM) and 31 nM (input ligand: none).
Regarding “UAUUAGCAAGCGAGAUCCCACAUGAGGAUCACCCAUGUGCUCGUCUGCUCCAGAAUUACUGGAGCAGCUCGUCUUAU [Winner reversed engineered 19] (Eterna round: R97, puzzle: Sensor, turn-off variant 1)”, the “apparent KD of MS2 coat protein” value is, setting by setting: (input ligand: FMN 200 uM) 21.7 nM; (input ligand: none) 22.4 nM.

Source of the values: the supplement of paper PMC9170038.
